For one substance, percent reduction of InlB binding to H1993 cells results are on record in patent US20160331840A1.

This assay has as its target InlB (recombinant His-tagged InlB321 peptide, aa 36-321 of internalin B) (Listeria monocytogenes). The experiment in a line: FACS competition; InlB pre-incubated with soluble MET peptide at 1:1 molar ratio.

For the substance “MET peptide (soluble peptide derived from the extracellular, ligand-binding domain of MET; YCP2247 SPEED BioSystems) (from UniProt P08581 25-932) (receptor)”, the percent reduction of InlB binding to H1993 cells came to 50%.
